These results are taken from publication PMC11707192 (Nature Communications, 2025).

Sequences and labels used below:
B1: mSTE-1 (peptide of the mSTELLA Swap1 region, residues 80-119) (peptide, UniProt Q8QZY3 80-119, looked up)
peptide: QSAFPKRRVRTLLSVLKDPIAKMRRLVRIEQRQKRLEGNE
B2: UHRF1 TTD-PHD (134-366) (domain or fragment, human, UniProt Q96T88 134-366, looked up)
chain: LYKVNEYVDARDTNMGAWFEAQVVRVTRKAPSRDEPCSSTSRPALEEDVIYHVKYDDYPENGVVQMNSRDVRARARTIIKWQDLEVGQVVMLNYNPDNPKERGFWYDAEISRKRETRTARELYANVVLGDDSLNDCRIIFVDEVFKIERPGEGSPMVDNPMRRKSGPSCKHCKDDVNRLCRVCACHLCGGRQDPDKQLMCDECDMAFHIYCLDPPLSSVPSEDEWYCPECRND
B4: hSTE-1 (peptide of the hSTELLA Swap1 region, residues 75-121) (peptide, UniProt Q6W0C5 75-121, looked up)
peptide: EDEWLYSRRGVRTLLSVQREKMARLRYMLLGGVRTHERRPTNKEPKG
B5: UHRF1 PHD domain (298-367) (domain or fragment, human, UniProt Q96T88 298-367, looked up)
chain: SGPSCKHCKDDVNRLCRVCACHLCGGRQDPDKQLMCDECDMAFHIYCLDPPLSSVPSEDEWYCPECRNDA

Experiment [1] deals with B5. Description: ITC.
Experiment [2] has as its target B2. The experiment can be described thus: ITC. (ITC needs no label: the signal is the heat of the interaction.)
In experiment [3] the target is B4. The experiment can be described thus: ITC.
Experiment [4] has as its target B1. The experiment can be described thus: ITC.
In experiment [5] the target is T1, UHRF1 TTD-PHD (deletion 167-175) (human, UniProt Q96T88 134-366, deletion 167-175).
T1 sequence (looked up): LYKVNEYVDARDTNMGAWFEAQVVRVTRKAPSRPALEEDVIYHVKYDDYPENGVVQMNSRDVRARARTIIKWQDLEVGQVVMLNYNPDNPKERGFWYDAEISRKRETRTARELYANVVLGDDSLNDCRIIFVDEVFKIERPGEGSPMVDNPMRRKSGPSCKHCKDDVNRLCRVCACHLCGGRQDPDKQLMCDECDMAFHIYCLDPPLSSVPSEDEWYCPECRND
Description: crystal structure.

For orientation: Kd means the concentration at which binding is half-saturated. The low end stands for a tighter complex, the high end for a looser complex. B1: the figures for the Kd in experiment [1] and in experiment [2] were 91.2 nM and 5.84 nM, respectively.

For the molecule B2, the “fold weaker affinity than the H3K9me3 tail” value in experiment [3] was 4 fold. Besides, the “fold more potent affinity than the H3K9me3 tail” value in experiment [4] is greater than 30 fold.

B3: mSTE-2 (truncated peptide within mSTE-1, residue 85-119) (peptide, UniProt Q8QZY3 85-119, looked up)
peptide: KRRVRTLLSVLKDPIAKMRRLVRIEQRQKRLEGNE
Consider B3, for which the binding result in experiment [5] and in experiment [1] was “binds” in each case.

For B4, the binding result in experiment [5] is “binds”. Besides, the Kd in experiment [1] amounted to 818 nM; in experiment [2], 786 nM.

For orientation: stoichiometry N means the number of molecules, sites or subunits per partner or assembly. As to B5, the “stoichiometry N” value in experiment [3] and in experiment [4] was 1 each time.
